Assay results: the supplement of paper PMC12855868

B1: library; numbered along this chain (parent)
chain: MAAAGGARLLRAASAVLGGPAGRWLHHAGSRAGSSGLLRNRGPGGSAEASRSLSVSARARSSSEDKITVHFINRDGETLTTKGKVGDSLLDVVVENNLDIDGFGACEGTLACSTCHLIFEDHIYEKLDAITDEENDMLDLAYGLTDRSRLGCQICLTKSMDNMTVRVPETVADARQSIDVGKTS

Variants of: B1
Assay: scaled log2 fold change in cell abundance, elesclomol vs control (0 = silent mean, 1 = nonsense mean) (scaled log2 ratio); higher = higher viability under elesclomol (loss of FDX1 cuproptosis function)
Conditions: glucose 10 mM
Procedure: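 Deep mutational scan of full-length human FDX1: a pooled saturation-mutagenesis ORF library (every residue 2-184 mutated to all 19 amino acids plus stop, and silent codons where available) was expressed by lentivirus in FDX1-knockout ABC1 (14 days) or HEK293T (11 days) cells grown with elesclomol (ES) or DMSO control. Variant abundance came from ORF sequencing. The log2 fold change (ES vs control, mean of duplicates) was centred on the silent-variant mean (0) and scaled to the nonsense-variant mean (1). Higher values mean greater viability under ES, i.e. loss of FDX1 function in cuproptosis.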

[1] = with ABC1 FDX1 KO, elesclomol 5 nM, 14 days
[2] = with HEK293T FDX1 KO, elesclomol 40 nM, 11 days
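Note: variant abundance is its share of total variant reads in each endpoint sample, from next-generation sequencing of the integrated ORF PCR-amplified out of genomic DNA.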

Variant	scaled log2 fold change [1]	scaled log2 fold change [2]
N96H	0.245	
N96E	0.241	-0.435
N96Y	-0.25	-0.153
N96F	0.145	-0.464
N96R	0.204	-0.0627
N96Q	-0.22	0.0675
N96M	0.283	-0.778
N96G	0.111	0.179
N96K	-0.0525	-0.121
N96W	-0.0659	-0.145
N96V	0.307	0.567
N96P	0.423	-0.187
N96T	-0.0877	-0.163
N96C	-0.324	-0.592
N96D	0.104	0.22
N96I	0.329	0.221
N96L	0.0905	0.033
N96A	-0.307	1.03
N96S	-0.155	-0.272
V93H	-0.124	-0.875
V93Y	-0.0809	1.12
V93D	0.877	0.496
V93M	0.416	0.244
V93E	0.231	-0.85

Variant	scaled log2 fold change [1]	scaled log2 fold change [2]
V93I	0.123	-0.612
V93C	-0.0745	0.258
V93P	0.924	0.209
V93S	0.115	-0.534
V93Q	0.0948	-0.698
V93L	0.0816	0.422
V93A	-0.15	1.27
V93R	0.275	0.16
V93T	-0.217	-0.372
V93G	0.574	-0.293
V93N	0.524	0.217
V93W	0.155	0.488
V93K	-0.498	
V93F	0.266	-0.377
N97F	0.103	-0.943
N97C	-0.382	-0.308
N97G	0.132	-0.242
N97T	-0.0494	0.415
N97Y	-0.364	-0.135
N97P	-0.344	-0.674
N97V	-0.176	-0.221
N97W	0.133	-0.218
N97L	-0.931	
N97I	0.125	-0.93

Variant	scaled log2 fold change [1]	scaled log2 fold change [2]
N97R	-0.00904	
N97K	0.149	0.739
N97S	-0.104	0.254
N97A	0.142	0.975
N97H	-0.355	-0.619
N97Q	-0.273	0.204
N97M	0.195	-0.11
N97D	0.0523	-0.622
N97E	-0.211	-1.28
V85R	0.266	-0.792
V85Y	-0.534	-0.0166
V85W	0.119	0.889
V85S	0.131	-0.121
V85N	-0.0121	0.0182
V85M	0.00542	-0.0343
V85L	-0.101	0.47
V85Q	0.0746	-0.0938
V85P	-0.0817	-1.46
V85K	0.192	-0.177
V85T	-0.279	-0.55
D87F	0.195	-0.393
D87A	0.0673	
D87V	-0.164	-0.704
D87N	-0.0848	

Variant	scaled log2 fold change [1]	scaled log2 fold change [2]
D87Q	-0.303	0.511
D87K	0.34	0.127
D87H	-0.183	0.121
D87W	-0.221	-0.509
D87S	-0.493	
D87L	-0.301	-0.549
D87P	0.439	-0.0143
D87G	-0.161	-0.147
D87R	-0.147	
D87Y	-0.31	-0.0378
D87M	0.055	-0.441
D87C	-0.824	-0.252
D87T	-0.14	
D87E	-0.224	0.0766
D87I	-0.274	-0.421
G86F	0.287	-0.571
G86Q	-0.2	0.928
G86H	0.239	0.453
G86A	0.349	0.0692
G86S	0.0131	0.985
G86N	0.233	
G86T	0.117	-0.144
G86I	0.576	0.0646
G86P	0.208	0.284

Variant	scaled log2 fold change [1]	scaled log2 fold change [2]
G86E	0.115	0.852
G86L	0.171	0.00376
G86K	0.242	-0.0346
G86C	0.175	1.4
G86Y	0.0464	0.586
G86W	0.246	
G86M	-0.125	-0.231
G86V	0.654	0.478
G86D	0.248	-0.689
G86R	0.269	-0.218
L90T	-0.871	-0.404
L90W	-0.148	0.134
L90G	0.46	0.288
L90I	-0.268	0.924
L90F	0.00898	-0.179
L90A	-0.423	
L90Q	-0.132	-0.0146
L90V	-0.0886	-0.208
L90S	-1	0.27
L90P	0.597	0.277
L90M	-0.268	-0.239
L90R	-0.127	-0.461
L90D	0.478	0.245
L90K	0.0261	

Variant	scaled log2 fold change [1]	scaled log2 fold change [2]
L90C	0.079	0.931
L90Y	-0.103	
L90N	0.293	-0.049
L90E	0.187	0.205
L90H	-0.379	1.81
E95W	0.0294	-0.33
E95F	-0.339	-0.0798
E95C	-0.0222	
E95P	0.178	-0.222
E95A	0.102	-0.337
E95K	0.0162	-0.042
E95G	-0.0448	0.982
E95V	0.0731	-0.123
E95Q	0.0772	-0.398
E95S	0.146	0.071
E95T	-0.37	
E95D	0.126	0.1
E95N	0.2	
E95Y	-0.143	-0.228
E95M	0.0861	-0.356
E95H	-0.106	-0.636
E95I	0.142	-0.228
E95R	-0.296	-0.0027
E95L	-0.168	-0.709

Variant	scaled log2 fold change [1]	scaled log2 fold change [2]
L98M	0.0485	0.18
L98E	0.00205	0.172
L98D	0.341	0.871
L98H	0.186	0.86
L98F	-0.0232	-0.902
L98K	0.356	0.0251
L98C	-0.21	-0.505
L98G	0.225	0.327
L98I	-0.0119	-0.482
L98A	-0.194	-1.06
V92A	0.494	-0.354
V92K	0.913	0.724
V92W	0.354	-0.298
V92M	-0.0956	0.391
V92T	-0.145	
V92P	0.511	0.131
V92C	0.195	-0.64
V92I	-0.0115	0.336
V92Y	0.0368	-0.087
V92D	1.07	1.13
V92R	1.1	0.379
V92E	0.961	0.463
V92G	0.459	0.237
V92H	0.295	0.314

Variant	scaled log2 fold change [1]	scaled log2 fold change [2]
V92L	0.019	
V92S	0.501	-0.213
V92F	0.0178	0.0606
V92N	0.121	0.904
V92Q	-1.03	0.183
D91K	-0.39	-0.0722
D91P	0.307	0.179
D91G	0.216	0.254
D91Y	-0.0508	0.728
D91C	0.188	0.246
D91M	-0.119	-1.37
D91R	-0.658	-0.752
D91I	0.418	-0.331
D91E	-0.0305	1.04
D91S	-0.972	0.774
D91L	0.217	-0.127
D91W	0.0916	-0.265
D91T	0.169	
D91V	-0.017	0.747
D91H	-0.00925	-0.865
D91N	0.109	-0.0567
D91Q	-1.31	-0.476
D91F	0.29	-0.219
S88Q	0.191	-0.766

Variant	scaled log2 fold change [1]	scaled log2 fold change [2]
S88L	0.0552	
S88G	0.17	0.309
S88F	0.301	
S88C	0.057	1.32
S88N	0.582	
S88E	0.289	0.37
S88V	-0.223	0.0665
S88A	0.0293	0.31
S88T	-0.996	-0.234
S88I	0.199	
S88W	0.356	-0.287
V94R	-0.258	1
V94S	-0.223	-1
V94Y	-0.0972	0.515
V94E	0.00926	-0.058
V94Q	0.235	-0.226
V94F	-0.376	-0.411
V94M	-0.224	1.17
V94D	-0.313	
V94C	-0.491	0.199
V94K	-0.573	-0.482
V94P	0.617	0.378
V94N	-0.345	-1.27
V94L	0.0554	-0.336

Variant	scaled log2 fold change [1]	scaled log2 fold change [2]
V94H	-0.328	0.317
V94G	-0.377	
V94T	-0.0231	
V94W	0.0681	0.96
V94I	-0.52	0.00216
V94A	0.0221	0.0839
L89Q	1.64	0.508
L89K	1.05	1.47
L89D	1.11	1.26
L89S	1.06	0.924
L89E	0.919	0.768
L89P	0.89	0.172
L89F	0.706	0.454
L89C	-0.261	0.257
L89A	-0.0423	
L89T	-0.121	-0.104
L89Y	0.534	0.223
L89W	0.552	1.33
L89V	0.313	-0.151
L89M	0.256	0.404
L89H	1.34	0.109
L89N	1.2	0.434
L89G	0.853	0.301
L89R	1.16	0.853
